Measured values as given in patent US10350264B2, “Compositions and methods for modulating NCOA4-mediated autophagic targeting of ferritin” (Dana-Farber Cancer Institute, Inc., priority 2014, dated 2019).
Entries after “also recorded” stand apart in the source; their conditions may differ.

T1: NCOA4(aa 383-522)-GST (Homo sapiens, UniProt Q13772)
T1 construct: NCOA4(aa 383-522)-GST or GST alone was incubated with; made in house; host or cells: E. coli BL21 (DE3)
T1 sequence (Q13772 383-522): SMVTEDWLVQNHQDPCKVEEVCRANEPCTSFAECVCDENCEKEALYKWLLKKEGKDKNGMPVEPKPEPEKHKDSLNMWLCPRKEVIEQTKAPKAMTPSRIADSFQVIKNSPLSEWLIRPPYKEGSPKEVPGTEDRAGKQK

T2: HERC2-FLAG fragment (F3, HERC2 amino acids 1700-2700) (Homo sapiens, UniProt O95714)
T2 construct: HERC2-FLAG fragment (F3, HERC2 amino acids 1700-2700) was produced as described in Bekker-Jensen et al; expressed in transfected cells; host or cells: 293T cells (transient transfection, lysate used)
T2 sequence (O95714 1700-2700): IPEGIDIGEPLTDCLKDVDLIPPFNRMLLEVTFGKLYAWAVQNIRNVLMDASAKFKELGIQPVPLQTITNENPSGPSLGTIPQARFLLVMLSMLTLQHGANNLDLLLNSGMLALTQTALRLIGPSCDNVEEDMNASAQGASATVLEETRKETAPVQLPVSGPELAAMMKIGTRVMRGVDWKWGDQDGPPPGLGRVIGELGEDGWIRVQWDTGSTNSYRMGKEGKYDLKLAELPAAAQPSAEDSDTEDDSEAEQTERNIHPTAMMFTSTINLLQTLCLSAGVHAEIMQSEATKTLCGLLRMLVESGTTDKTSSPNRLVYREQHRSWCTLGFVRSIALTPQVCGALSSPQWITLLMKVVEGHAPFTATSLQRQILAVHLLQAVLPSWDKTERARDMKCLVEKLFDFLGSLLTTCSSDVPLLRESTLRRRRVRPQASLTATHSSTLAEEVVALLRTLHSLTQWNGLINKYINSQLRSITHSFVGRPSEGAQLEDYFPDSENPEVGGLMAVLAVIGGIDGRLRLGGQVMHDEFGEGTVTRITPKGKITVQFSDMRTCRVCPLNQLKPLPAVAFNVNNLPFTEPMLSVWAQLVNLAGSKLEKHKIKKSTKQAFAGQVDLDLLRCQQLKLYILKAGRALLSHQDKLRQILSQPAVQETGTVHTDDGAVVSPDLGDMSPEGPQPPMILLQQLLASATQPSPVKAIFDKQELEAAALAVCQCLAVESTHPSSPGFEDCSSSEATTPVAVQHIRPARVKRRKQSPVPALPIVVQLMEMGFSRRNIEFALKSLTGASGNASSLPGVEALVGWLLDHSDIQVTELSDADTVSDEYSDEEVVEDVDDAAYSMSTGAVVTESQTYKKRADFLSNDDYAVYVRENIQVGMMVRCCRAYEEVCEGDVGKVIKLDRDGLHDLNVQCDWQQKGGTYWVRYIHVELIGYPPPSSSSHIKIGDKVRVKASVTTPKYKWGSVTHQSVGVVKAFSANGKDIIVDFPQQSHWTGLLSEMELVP


Columns and labels:
[1] = biological target: T3, apo-ferritin purified from equine spleen (Equus caballus, UniProt Q8MIP0); experiment: GST pull-down assay of ferritin using GST-NCOA4 fragments; format: binding; details: anti-FTH1 immunoblot
T3 construct: apo-ferritin purified from equine spleen; purchased Sigma F4503; host or cells: equine spleen
T3 sequence (Q8MIP0 whole entry, the tested form may be a part): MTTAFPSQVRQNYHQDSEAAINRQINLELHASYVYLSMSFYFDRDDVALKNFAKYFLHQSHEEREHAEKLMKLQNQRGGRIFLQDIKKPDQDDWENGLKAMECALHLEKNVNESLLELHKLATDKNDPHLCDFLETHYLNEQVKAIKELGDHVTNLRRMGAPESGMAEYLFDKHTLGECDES
T3 sequence (P02791 2-175 partner limits assumed): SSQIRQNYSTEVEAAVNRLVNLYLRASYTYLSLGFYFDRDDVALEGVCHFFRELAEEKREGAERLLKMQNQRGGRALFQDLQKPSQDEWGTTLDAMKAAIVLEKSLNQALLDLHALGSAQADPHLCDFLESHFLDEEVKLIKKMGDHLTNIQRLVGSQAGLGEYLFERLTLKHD
Text: GST-tagged NCOA4 constructs were also made to probe the interactions of C-terminal portions of NCOA4 with ferritin. NCOA4-truncation constructs were produced using Gateway cloning (Invitrogen, Life Technologies, catalog #11789-013 and 11791-019) into a pDEST60 N-terminal GST fusion plasmid (GST-NCOA4) from EMD Millipore (Gateway Nova pET-60-DEST, product #71851-3) and transformed in E. coli BL21 (DE3) cells (New England Biosciences, C2527I).
NCOA4 truncation constructs were designed based on NCBI reference sequence: NP_001138735.1 (SEQ ID NO: 4). In particular, fragments of SEQ ID NO: 4 consisting of amino acids (aa) 1-245, aa 235-614, aa 235-560, aa 235-401, aa 383-560, aa 545-614, aa 383-522, aa 510-560, aa 383-436, aa 436-485, aa 475-522, aa 475-500, aa 480-500, aa 480-504, aa 485-509, aa 490-514, aa 495-522 were designed. Protein expression in the DE3 cells was induced with 1 mM isopropyl-beta-D-thiogalactopyranoside (IPTG) (Sigma, I6758-10 G) for 3 hours at 37° C. Cells were collected by centrifugation, re-suspended in 25 mM Tris-HCl (pH 7.4), 10% (w/v) sucrose and lysed with a single freeze-thaw cycle followed by sonication. After centrifugation, a GST pull-down assay was performed.
In the GST pull-down assay, lysates were incubated with 10 μl of a 50% (v/v) slurry of glutathione Sepharose 4B beads (GE Healthcare Lifesciences, 17-0756-01) for 30 minutes at 4° C. Beads were washed thoroughly with 150 mM NaCl, 20 mM Tris (pH 7.4), 2 mM dithiothreitol (DTT), 0.5% (w/v) Nonidet P-40, leaving 50-100 μg of GST-fusion protein bound to the beads. Beads were then mixed with 0.5-2 μg of apo-ferritin purified from equine spleen (Sigma F4503) or recombinant human FTH1 or FTL produced in Rosetta E. coli (EMD Millipore, 70953-3). The assay mix was incubated for 2 hours at 4° C., and beads were washed four times with 1 ml wash buffer. Proteins were eluted with SDS sample buffer and analyzed by 4-20% gradient SDS-PAGE and immunoblotting with anti-FTH1 antibody (as above) or anti-FLAG antibody (Sigma, F1804-200 UG). Pounceau stain was used to visualize GST-NCOA4 bands. (Pounceau, Sigma, P7170-1 L, protocol as per product manual).

FTH1 = experiment: IVT-based interaction experiment with His-GST-HA tagged NCOA4 constructs and GST pull-down; format: binding; details: equal load of fragments; FIG. 9
PANC1 cells = experiment: autophagosome formation, fluorescence microscopy of cells expressing GFP-MAP1LC3B; format: cell-based, human; details: Wortmannin 200 nM 1 h, chloroquine 25 μM 4 h, FIG. 13(b)
8988T cells = experiment: NCOA4 protein levels while blocking autophagic flux (immunoblot); format: cell-based, human; details: CQ or BAF 8 hours, FIG. 2(c)
8988T and U2OS cells = experiment: chelation assay, ferritin degradation by FTH1 immunoblot; format: cell-based, human; details: FAC loading then chelators (DFO, BPS, DFP); FIG. 3(a)-(b), FIG. 19
Procedure: Chelation assays were performed similarly to those previously described with slight modifications [Asano et al., supra]. Briefly, U2OS and 8988T cells stably expressing shRNAs as described above (shGFP, shNCOA4-1, shNCOA4-2, selected with puromycin) were plated (2×10^5 cells/well) and cultured for 24 hours in FAC (36 μM or 180 μM). Cells were washed three times with PBS and subjected to iron chelation with the described chelators minus or plus lysosomal protease inhibitors (E-64d and PepstatinA) or the proteasomal inhibitor, Bortezomib. Cells were harvested at the indicated time points, washed with PBS, and lysed in 50 mM Tris-HCl (pH 7.4), 150 mM NaCl, 1% Nonidet P40, 0.1% SDS, 2 mM EDTA, 2 mM DTT, protease inhibitors and analyzed by 4-20% gradient SDS-PAGE followed by immunoblotting with the indicated antibodies. Experiments were performed at a minimum in biological triplicate. Quantitation of Western blots was performed using ImageJ [Schneider, C. A., et al. Nature Methods 9, 671-675 (2012)]. Cells were treated similarly for immunofluorescence experiments (including IMR90 and HPDE cells). Cells plated on glass coverslips were treated as described and fixed with 4% paraformaldehyde prior to immunofluorescence using anti-ferritin and anti-LAMP2. Data were collected as described above.

NCOA4(aa 383-522)-GST = biological target: T1, NCOA4(aa 383-522)-GST; experiment: GST pull-down assay of WT and point mutant FTH1 using NCOA4(aa 383-522)-GST; format: binding; details: 40 μg FTH1, InstantBlue stain; FIGS. 23A-D
[2] = biological target: T2, HERC2-FLAG fragment (F3, HERC2 amino acids 1700-2700); experiment: GST pull-down assay of HERC2-FLAG Fragment 3 using GST-NCOA4 fragments; format: binding; details: 293T lysate expressing HERC2-FLAG F3, anti-FLAG immunoblot; FIG. 12
Procedure: To map the interaction of NCOA-4 with HERC2, the GST-NCOA4 truncation constructs described above were also tested in a GST pull-down assay with HERC2-FLAG expressing 293T cell line. HERC2-FLAG fragment (F3, HERC2 amino acids 1700-2700) was produced as described in Bekker-Jensen et al., Nature Cell Biology (2010) 12; 80-86. The HERC2-FLAG F3 was transiently transfected into 293T cells using standard transfection procedures using PEI (Polysciences, #23966-2).
Lysates were obtained, as above, and incubated with 10 μl of a 50% (v/v) slurry of glutathione Sepharose 4B beads for 30 minutes at 4° C. Beads were washed thoroughly with 150 mM NaCl, 20 mM Tris (pH 7.4), 2 mM DTT, 0.5% (w/v) Nonidet P-40, leaving 50-100 μg of GST-fusion protein bound to the beads. Beads were then mixed with 300 μg of lysate from a HERC2-FLAG expressing 293T cell line, as above. The assay mix was incubated for 2 hours at 4° C., and beads were washed four times with 1 ml wash buffer. Proteins were eluted with SDS sample buffer and analyzed by 4-20% gradient SDS-PAGE and immunoblotting with anti-HERC2 antibody or anti-FLAG antibody, as above. Coomassie stain was used to visualize GST-NCOA4 bands as above.

Row | Molecule | binding of GST-NCOA4 fragment to ferritin ([1]; FIGS. 7, 8, 11) | pull-down of FTH1 by IVT GST-NCOA4 fragment (FTH1) | ferritin degradation in response to iron chelation (8988T and U2OS cells) | other results
1 | KAMTPSRIADSFQVIKNSPLSEWLIRPPYKEGSPKEVPGTEDRAGKQK (Homo sapien) [aa 475-522] | interacted with ferritin; also recorded: bound to ferritin | equally pulled down (bound to) FTH1 | – | binding of GST-NCOA4 fragment to ferritin ([1]; FIGS. 7, 8, 11, listed as amino acids 475-522): bind to ferritin
2 | CCN(CC)CCCC(C)Nc1ccnc2cc(Cl)ccc12 (centres unmarked) [chloroquine, Chloroquine] | – | – | – | effect on autophagosomes (PANC1 cells): caused accumulation of autophagosomes; NCOA4 protein levels (8988T cells): markedly increased
3 | 5′ GCTGGCAAACAGAAGTTTAAA 3′ (expressed or natural sequence) [shNCOA4-2] | – | – | rescued ferritin degradation | –
4 | 5′ CCCAGGAAGTATTACTTAATT 3′ (expressed or natural sequence) [shNCOA4-1] | – | – | rescued ferritin degradation | –
5 | FTH1 R23A point mutant: recombinant human ferritin heavy chain with R23A point mutation, produced in E. coli | – | – | – | binding of FTH1 (WT or point mutant) to NCOA4(383-522)-GST (NCOA4(aa 383-522)-GST): bound only very weakly
6 | aa 383-522: fragment of NCOA4 SEQ ID NO: 4 (protein, GST tag; Homo sapien) SMVTEDWLVQNHQDPCKVEEVCRANEPCTSFAECVCDENCEKEALYKWLLKKEGKDKNGMPVEPKPEPEKHKDSLNMWLCPRKEVIEQTKAPKAMTPSRIADSFQVIKNSPLSEWLIRPPYKEGSPKEVPGTEDRAGKQK | bind to ferritin | equally pulled down (bound to) FTH1 | – | binding of GST-NCOA4 fragment to HERC2-FLAG [2]: bound to HERC2-FLAG
